Assay: soluble on expression in E. coli; label from the status in PepcDB or PDB records

Sequence | soluble on expression in E. coli
MPCTDKGMIDLARKTVKLTTLRQGEEATIAGISKACRGANRRRLLDLGFVRGSRIAIDLTSPLGNPTAYVVRGTAIALRRDQARYILIYR | not soluble
MGSDKIHHHHHHMSSPLLTMRGIRKSYAGVHALVDGNLDLERGQIHALCGGNGAGKSTILGILMGFTRPDCGEIRIEGKPVSFANPTQALQAGIAIVQQELSGVPHLTVAENIYLGAEPRRRGFVDFPQLNRQAEELLASLGFDIDPRVPLASLSIASQQLIEIAKALSRRDADILIFDEPTSAIGEKDTLRLFEVLRDLAAAGKGIIYVTHRLAEVFTIADSYTVFKDGARIETGRVADITREKLIESMIGGAIEGEYVKENVPSDRPLLDVRGLSRAPWFDRVSFTLHAGEILGIYGLVGSGRSQLLDTIYGLYPADAGTVWVEGREIRPGRVRAALGAGISYVTEDRKHSGLVLCASVGDNLSLSQLPHIQRFGFIRTALERAGIDDSIAKMRIKTPGPEQIVRNLSGGNQQKVVFGRCTSIGPKVLLLDEPTRGVDVGAKKEIYRFVSDFTKAGGAVLMVSSELDEITGMSDRIIVIKKGAHVAEFPREETTQKALMMAAV | not soluble
MGSDKIHHHHHHMPINKLALVRYKTIDSCLQNRFRKWTLEDLMEACSDALYEYEGMTKGISRRTIQLDIQNMRSEKLGYNAPIIVTDKKFYSYEDKGYSITNSPLTQQDLGTLVEVLDVLKQFKGFGYFQELTGMVTRLEDKLYTHQHKGKSYIDFEKNELLKGLQHIDLLHKAIINKKTVDILYQSFKAASAQNITFYPYLLKEYRNRWFILGCNKRTKATMILALDRIEQFKELRSEKYMKPDFDVATYFDDVIGVSKMPNQEPQLIVCKISKEHAPYIITKPIHASQQIIRGEKDGTVFSIHVIWNFELERELLGFGEQLQVLAPRRIQGKLRARMKRAVAAYESEKKE | not soluble
MTGTSNIPTHGKEHKDAPALLPLPAPNPHHTHAAHPGNPSHDRPPSRGKLFIKTHGCQMNEYDSAKMADVLTTTEALELTDNPEEADIILINTCSIREKAQEKVFSQLGRWRALKTSGRDVIIGVGGCVASQEGEAIVKRAPYVDLVFGPQTLHRLPDMIRARREQNRPQVDIRFPEIEKFDHLPTPRAEGPSAFVSIMEGCSKYCSFCVVPYTRGEEVSRPFEDVLTEIAHLATQGVREINLLGQNVNAYRGAMDPGPSNNTNPAPPPYADLGLLIRAIAQFESIGRIRFTTSHPLEFSDSLVEAYRDVPQLANHLHLPVQSGSDRILSAMKRGYTALEFKSKIRKLRAVRPDISISSDFIIGFPGESDTDFQKTMQLIEDIGFDQSFSFIYSRRPGTPASNLEDHTPDEIKRTRLEHLQKHINTYAADISKRMIGTVQTVLVEGPSKKNPNELTGKTENMRPVNFPGHPRLIGQFIDVHITEALSNSLRGRVHTNLEHHHHHH | soluble
MKETDLAFFRSFKNRILKEINVMQLCRVVTVKGARADVQPMALKSDGGKRALILNALITKHCQSDISQGAVVVVVFCDRDIDNYRSSADYSLSSDRMHSQNDAVIMGVIA | not soluble
MEYPRVMIRFAVIGTNWITRQFVEAAHESGKYKLTAVYSRSLEQAQHFANDFSVEHLFTSLEAMAESDAIDAVYIASPNSLHFSQTQLFLSHKIHVICEKPLASNLAEVDAAIACARENQVVLFEAFKTACLPNFHLLRQALPKAGKLRKVFFNYCQYSSRYQRYLDGENPNTFNPAFSNGSIMDIGFYCLASAVALFGEPKSVQATASLLASGVDAHGVVVMDYGDFSVTLQHSKVSDSVLGSEIQGEAGSLVIEKLSECQKVCFVPRGSQMQDLTQPQHINTMLYEAELFATLVDEHLVDHPGLAVSRITAKLLTEIRRQTGVIFPADSVKLYLPK | not soluble
GSHMIKVLSPAKINLGLWVLGRLPSGYHEILTLYQEIPFYDEIYIREGVLRVETNIGIPQEENLVYKGLREFERITGIEINYSIFIQKNIPPGAGLGGGSSNLAVVLKKVNELLGSPLSEEELRELVGSISADAPFFLLGKSAIGRGKGEVLEPVETEISGKITLVIPQVSSSTGRVYSSLREEHFVTPEYAEEKIQRIISGEVEEIENVLGDIARELYPEINEVYRFVEYLGFKPFVSGSGSTVYFFGGASEELKKAAKMRGWKVVELEL | soluble
MKVVIASDHGGMNIRKELVSLLEELNIEYIDLGCECEAGSVDYPDFAFPAAEMVANGEVDRGILVCGTGIGMSIAANKVNGIRCALVHDTFSARATREHNDTNMLAMGERVIGAGLARDIAKIWLTTEFEGGRHENRVGKIKTYEAK | not soluble
MAEQQQEQQIRVRIPRKEENEILGIIEQMLGASRVRVRCLDGKTRLGRIPGRLKNRIWVREGDVVIVKPWEVQGDQKCDIIWRYTKTQVEWLKRKGYLDELL | soluble

Reference: the DeepSol protein solubility set
